T1: Nogo-66 (rat, UniProt Q9JK11 1019-1083)
T1 construct: also called Nogo-66 fragment
T1 sequence: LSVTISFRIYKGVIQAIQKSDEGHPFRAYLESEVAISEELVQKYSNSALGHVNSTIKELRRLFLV

T2: rat NiG-D6 (rat, UniProt Q9JK11 763-975)
T2 construct: pET28 construct from bacteria
T2 sequence: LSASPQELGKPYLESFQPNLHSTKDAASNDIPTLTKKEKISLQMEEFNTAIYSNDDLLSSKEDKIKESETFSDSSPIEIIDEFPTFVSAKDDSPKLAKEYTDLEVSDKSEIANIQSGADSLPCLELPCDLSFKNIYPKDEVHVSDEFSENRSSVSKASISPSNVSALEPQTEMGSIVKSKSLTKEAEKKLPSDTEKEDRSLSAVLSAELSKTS

T3: rat NiG (rat, UniProt Q9JK11 174-979)
T3 construct: also called recombinant rat NIG
T3 sequence: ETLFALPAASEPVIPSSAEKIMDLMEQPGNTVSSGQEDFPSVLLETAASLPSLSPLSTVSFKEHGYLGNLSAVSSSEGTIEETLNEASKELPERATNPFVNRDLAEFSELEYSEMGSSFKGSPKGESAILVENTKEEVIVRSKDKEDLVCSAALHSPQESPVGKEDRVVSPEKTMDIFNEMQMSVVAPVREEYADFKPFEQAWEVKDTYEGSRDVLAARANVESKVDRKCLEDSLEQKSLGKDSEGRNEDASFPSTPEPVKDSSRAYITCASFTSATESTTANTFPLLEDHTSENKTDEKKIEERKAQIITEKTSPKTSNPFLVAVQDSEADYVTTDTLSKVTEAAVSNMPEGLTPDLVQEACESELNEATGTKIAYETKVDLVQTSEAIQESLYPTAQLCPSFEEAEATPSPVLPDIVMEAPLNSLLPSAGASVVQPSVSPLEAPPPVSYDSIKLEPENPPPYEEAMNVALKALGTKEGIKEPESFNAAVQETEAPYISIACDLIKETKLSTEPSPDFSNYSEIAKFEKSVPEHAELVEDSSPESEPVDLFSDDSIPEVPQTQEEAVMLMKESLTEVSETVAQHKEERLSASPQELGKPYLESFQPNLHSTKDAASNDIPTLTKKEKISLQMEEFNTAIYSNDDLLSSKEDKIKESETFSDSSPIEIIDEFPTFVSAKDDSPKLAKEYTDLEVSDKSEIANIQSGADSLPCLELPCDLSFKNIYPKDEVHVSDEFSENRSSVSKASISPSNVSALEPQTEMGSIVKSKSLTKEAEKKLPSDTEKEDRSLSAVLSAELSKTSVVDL

T4: human NiG (human, UniProt Q9NQC3 186-1004)
T4 construct: Expressed in E. coli from pET28a-hNiG; also called hNiG; recombinant human NIG; not shown: N-terminal His- and T7-tag from pET28a
T4 sequence: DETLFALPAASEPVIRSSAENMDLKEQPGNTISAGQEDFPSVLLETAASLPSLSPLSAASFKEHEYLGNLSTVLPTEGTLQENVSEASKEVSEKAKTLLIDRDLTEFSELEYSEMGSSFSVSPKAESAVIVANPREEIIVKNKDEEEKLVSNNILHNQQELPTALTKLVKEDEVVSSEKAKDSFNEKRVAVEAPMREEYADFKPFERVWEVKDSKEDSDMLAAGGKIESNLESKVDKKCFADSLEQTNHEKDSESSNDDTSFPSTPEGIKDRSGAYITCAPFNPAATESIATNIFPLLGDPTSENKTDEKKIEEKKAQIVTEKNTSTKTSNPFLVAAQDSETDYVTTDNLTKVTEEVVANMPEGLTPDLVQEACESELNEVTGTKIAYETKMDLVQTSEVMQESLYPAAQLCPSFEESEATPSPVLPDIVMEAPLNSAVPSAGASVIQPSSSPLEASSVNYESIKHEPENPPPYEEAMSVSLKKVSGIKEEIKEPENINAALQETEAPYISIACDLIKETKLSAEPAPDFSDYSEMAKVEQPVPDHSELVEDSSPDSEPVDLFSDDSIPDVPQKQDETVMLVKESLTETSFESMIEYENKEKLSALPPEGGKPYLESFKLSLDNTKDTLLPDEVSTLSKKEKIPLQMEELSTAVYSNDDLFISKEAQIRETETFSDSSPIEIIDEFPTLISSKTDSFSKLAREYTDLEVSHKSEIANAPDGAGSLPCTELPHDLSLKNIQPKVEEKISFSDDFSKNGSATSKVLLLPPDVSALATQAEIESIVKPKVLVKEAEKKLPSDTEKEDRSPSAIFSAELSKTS

T5: mouse NiG (mouse, UniProt Q99P72 188-974, limits assumed)
T5 construct: domain: NiG-exon3; also called mNiG-exon3; mouse NiG-exon3
T5 sequence (looked up): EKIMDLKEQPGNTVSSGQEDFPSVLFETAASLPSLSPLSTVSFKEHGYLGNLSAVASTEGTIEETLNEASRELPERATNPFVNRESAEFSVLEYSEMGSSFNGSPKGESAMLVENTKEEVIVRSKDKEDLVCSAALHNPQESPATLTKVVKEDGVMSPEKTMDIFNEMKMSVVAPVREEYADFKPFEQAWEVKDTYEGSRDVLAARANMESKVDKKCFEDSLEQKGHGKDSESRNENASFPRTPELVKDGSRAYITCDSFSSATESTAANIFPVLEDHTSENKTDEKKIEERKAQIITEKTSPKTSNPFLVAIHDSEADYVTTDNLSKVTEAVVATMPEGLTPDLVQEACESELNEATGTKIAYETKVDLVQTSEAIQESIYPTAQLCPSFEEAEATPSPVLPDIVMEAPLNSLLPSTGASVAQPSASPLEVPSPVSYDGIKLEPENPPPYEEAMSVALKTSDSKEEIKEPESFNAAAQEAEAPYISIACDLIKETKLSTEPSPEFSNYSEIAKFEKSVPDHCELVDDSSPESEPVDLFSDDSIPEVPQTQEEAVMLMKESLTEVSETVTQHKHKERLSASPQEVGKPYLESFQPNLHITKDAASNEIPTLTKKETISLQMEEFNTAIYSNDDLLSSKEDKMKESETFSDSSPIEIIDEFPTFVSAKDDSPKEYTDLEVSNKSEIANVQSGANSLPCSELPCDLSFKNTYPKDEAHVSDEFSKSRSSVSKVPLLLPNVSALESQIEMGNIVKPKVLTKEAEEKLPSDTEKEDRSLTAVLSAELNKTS

T6: rat NogoA-623-640 (rat)
T6 construct: Free peptide used for preincubation with 11C7; also called immunogenic peptide
T6 peptide: SYDSIKLEPENPPPYEEA


What was measured:
[1] = target: T1, Nogo-66; test: ELISA, fragment coated on plate
Description: (§1) Greiner 96 well PS plates (#655161) are coated with 0.4-2 ug/ml Nogo protein fragments in PBS (100ul/well) covered and incubated 4 hours at room temperature. Plates are flicked and refilled with 200 ul/well blocking buffer (PBS+2% BSA), covered and incubated. 1 h at RT or overnight at 4° C., then washed 4 times with water and PBS. Different concentrations of mouse 11C7 mAb or 11C7 Fab are diluted in PBS+2% BSA (100 u/well), and incubated 2 h at RT or overnight at 4° C. Wash step is repeated and Goat anti-mouse IgG conjugated with horse radish peroxidase (HRP) at a dilution of 1:5000 (ICN #55550) in PBS/0.1% BSA/0.1% Nonidet 40 (100 uVwell) is added and incubated. 2h at RT or overnight at 4° C. and wash step is repeated. HRP reaction is started by adding 100 uvwell BM blue POD (Roche #1484281) and incubafed in the dark at RT for 15 minutes. H2SO4 50 ul/well 1 M is added to stop HRP substrate reaction and the optical density is determinated using a microplate reader (Packard Spectra Count) set to 450 nm.

[2] = target: T2, rat NiG-D6; test: ELISA, fragment coated on plate
Description: as §1

[3] = target: T3, rat NiG; test: SPR (BIAcore 2000), NiG amine-coupled on CM5 chip, antibody injected
Description: (§2) The affinity of the mouse 11C7 mAb and of the 11C7 Fab are measured by surface plasmon resonance (SPR) using a BIAcore 2000 optical biosensor (Biacore, Uppsala, Sweden) according to the manufacture's instructions (see FIG. 2). Recombinant human, mouse, and rat NIG are covalently attached to three separate flow cells of a CM5 sensor chip using amine-coupling chemistry. Briefly; the carboxymethlyladed dextran matrix is activated by injecting 35 ul of a solution containing 0.025M NHS and 0.1M EDC. […] The deactivation of the remaining NHS-ester group is performed by injection of 35 ul of 1M ethanolamine hydrochloride (pH 8.5). The surface of the sensor chip is regenerated by injecting 5 ul 0.1M HCl. […] After each injection the sensor chip surface is regenerated with the injection of 10 ul 0.1M HCl without loss of binding activity on the surface. The kinetic constants, ka and kd and the affinity constants KA and KD are evaluated using the BIAevaluations 3.0 software supplied by the manufacturer.
(§3) Affinity measurement in BIAcore: The kinietc and the affinity binding constants of the mouse 11C7 mAb and the 11C7 derived monovalent Fab fragment to recombinat NogoA are measured in real time using surface plasmon resonance (SPR) technology (Biacore). For this analysis recombinant human, mouse and rat NIGs are coupled on three independent sensor chip surfaces and different concentrations of the antibodies are injected. Kinetic parameters of the binding interactions are derived from the sensorgrams by non-linear curve fitting. […] The lower affinity of the Fab fragment results from a decrease of both kinetic constants, association and dissociation (ka, kd).

[4] = target: T4, human NiG; test: as above
Description: as §2, §3

[5] = target: T5, mouse NiG; test: as above
Description: as §2, §3

[6] = target: T6, rat NogoA-623-640; test: peptide competition of cell surface staining of living rat oligodendrocytes
Description: Immunocytochemistry: Optic nerve oligodendrocytes are prepared as described (Schwab, Caroni, 1988, Neuron). Three to five day-old cultures grown on poly-L-lysine coated coverslips are washed twice with PBS, fixed in 4% (w/v) paraformaldehyde (PFA), 5% (w/v) sucrose in PBS for 15 min at room temperature (RT) and non-specific binding is blocked with 10% (v/v) FCS. Cells were then incubated with mouse 11C7 (1:100). Secondary antibodies are goat-anti-mouse TRITC (Jackson ImmunoResearch Laboratories). For cell surface staining, two day-old rat optic nerve cultures are incubated with monoclonal antibody in medium for 25 min at RT. Secondary alkaline phosphatase conjugated antibodies (Milan Analytica, Lausanne) are used at 1:7,500 in 0.1 M maleic acid with 1% (w/v) blocking reagent (1 hr). The cultures are washed twice with maleic acid buffer, once with alkaline phosphatase buffer (0.1 M Tris-HCl pH 9.5, 0.1 M NaCl, 5 mM MgCl₂) and the staining is developed for 3 hrs at room temperature with 0.175 mg/ml BCIP (Sigma) and 0.338 mg/ml NBT (Sigma) in alkaline phosphatase buffer.
Cell surface staining is present on all major and small processes and on the cell body. Thus, the Nogo-A specific part of the molecule recognised by mouse 11C7 mAb is exposed to the extracellular space on the plasma membrane of oligodendrocytes.

[7] = target: T4, human NiG; test: SPR (BIAcore 2000), NiG amine-coupled on CM5 chip, Fab injected
Description: as §2, §3

| binding result [1] | binding result [2] | Ka [3] | Kd [3] | koff [3] | kon [3] | Ka [4] | Kd [4] | koff [4] | kon [4] | Ka [5] | Kd [5] | koff [5] | kon [5] | binding result [6] | Ka [7] | Kd [7] | koff [7] | kon [7] | Binder |
| --- | --- | --- | --- | --- | --- | --- | --- | --- | --- | --- | --- | --- | --- | --- | --- | --- | --- | --- | --- |
| no binding (tested: 0.02 to 2.5 nM) | no binding (tested: 0.02 to 2.5 nM) | 2.25e+09 M⁻¹ | 0.444 nM | 0.000389 s⁻¹ | 876000 M⁻¹ s⁻¹ | 9.73e+09 M⁻¹ | 0.103 nM | 4.6e-05 s⁻¹ | 448000 M⁻¹ s⁻¹ | 5.2e+09 M⁻¹ | 0.192 nM | 0.000106 s⁻¹ | 552000 M⁻¹ s⁻¹ | binds |  |  |  |  | mouse 11C7 mAb (antibody, V domains shown, also called mouse 11C7-IgG1; mAb 11C7) VH: EVKLLESGGGLVQPGGSLKLSCVVSGFDFRRNWMSWVRQAPGKGLEWIGEINPDSSKINYTPSLKDKFIISRDNAKNTLYLQVSTVRSEDTALYYCVRPVWMYAMDYWGQGTSVTVSS VL: not shown |
| no binding (tested: 0.025 to 25 nM) | no binding (tested: 0.025 to 25 nM) |  |  |  |  |  |  |  |  |  |  |  |  |  | 1.4e+08 M⁻¹ | 7.14 nM | 0.000528 s⁻¹ | 72900 M⁻¹ s⁻¹ | 11C7 Fab (Fab, V domains shown, also called 11C7 derived monovalent Fab fragment; Fab monovalent fragment) VH: EVKLLESGGGLVQPGGSLKLSCVVSGFDFRRNWMSWVRQAPGKGLEWIGEINPDSSKINYTPSLKDKFIISRDNAKNTLYLQVSTVRSEDTALYYCVRPVWMYAMDYWGQGTSVTVSS VL: not shown |

From US20060183678A1 (Novartis, published 2006)
